Reference: IntAct's records for PubMed 23434407

Experiments:
cab39_human CAB39 [1] = molecular target: cab39_human CAB39 (UniProt Q9Y376)
cab39_human CAB39 [2] = molecular target: cab39_human CAB39 (UniProt Q9Y376); remark: listed apart in the source
cab39_human CAB39 [3] = molecular target: cab39_human CAB39 (UniProt Q9Y376); remark: listed apart in the source
cab39_human CAB39 [4] = molecular target: cab39_human CAB39 (UniProt Q9Y376); remark: listed apart in the source

Sequence of cab39_human CAB39 (Q9Y376 whole entry): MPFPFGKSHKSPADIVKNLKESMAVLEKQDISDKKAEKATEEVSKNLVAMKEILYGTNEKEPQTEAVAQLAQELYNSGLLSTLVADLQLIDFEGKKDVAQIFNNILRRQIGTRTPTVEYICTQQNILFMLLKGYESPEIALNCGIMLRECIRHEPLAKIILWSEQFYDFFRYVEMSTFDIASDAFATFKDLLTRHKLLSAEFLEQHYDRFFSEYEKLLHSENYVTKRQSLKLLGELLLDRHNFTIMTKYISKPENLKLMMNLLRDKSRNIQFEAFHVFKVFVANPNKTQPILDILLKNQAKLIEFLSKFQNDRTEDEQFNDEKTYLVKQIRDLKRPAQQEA
Sequence of Serine/threonine-protein kinase 26 (Homo sapiens), Q9P289-1 W324E (Q9P289 whole entry W324E): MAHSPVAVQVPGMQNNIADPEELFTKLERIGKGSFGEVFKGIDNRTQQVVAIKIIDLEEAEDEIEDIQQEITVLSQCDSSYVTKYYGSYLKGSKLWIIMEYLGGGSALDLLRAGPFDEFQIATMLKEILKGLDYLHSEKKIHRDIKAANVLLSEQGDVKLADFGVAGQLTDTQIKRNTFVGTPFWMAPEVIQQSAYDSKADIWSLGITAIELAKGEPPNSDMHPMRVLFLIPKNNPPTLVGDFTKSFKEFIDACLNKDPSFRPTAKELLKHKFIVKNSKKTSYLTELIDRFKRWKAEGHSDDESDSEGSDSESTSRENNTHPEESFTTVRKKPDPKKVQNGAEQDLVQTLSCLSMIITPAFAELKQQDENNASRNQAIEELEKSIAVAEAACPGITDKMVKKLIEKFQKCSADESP
Sequence of Serine/threonine-protein kinase 26 (Homo sapiens), Q9P289-1 L95E (Q9P289 whole entry L95E): as the sequence (Q9P289 whole entry W324E) above, with L95E, E324W counted along it
Sequence of Serine/threonine-protein kinase 26 (Homo sapiens), Q9P289-1 L90E;L95E (Q9P289 whole entry L90E/L95E): as the sequence (Q9P289 whole entry W324E) above, with L90E, L95E, E324W counted along it
Sequence of Serine/threonine-protein kinase 26 (Homo sapiens), Q9P289-1 Y134A (Q9P289 whole entry Y134A): as the sequence (Q9P289 whole entry W324E) above, with Y134A, E324W counted along it
Sequence of Serine/threonine-protein kinase 26 (Homo sapiens), Q9P289-1 D242A;K276A (Q9P289 whole entry D242A/K276A): as the sequence (Q9P289 whole entry W324E) above, with D242A, K276A, E324W counted along it
Sequence of Serine/threonine-protein kinase 26 (Homo sapiens), Q9P289-1 E58A (Q9P289 whole entry E58A): as the sequence (Q9P289 whole entry W324E) above, with E58A, E324W counted along it
Sequence of Serine/threonine-protein kinase 26 (Homo sapiens), Q9P289-1 D162A (Q9P289 whole entry D162A): as the sequence (Q9P289 whole entry W324E) above, with D162A, E324W counted along it
Sequence of Serine/threonine-protein kinase 26 (Homo sapiens), Q9P289-1 L228E (Q9P289 whole entry L228E): as the sequence (Q9P289 whole entry W324E) above, with L228E, E324W counted along it
Sequence of Serine/threonine-protein kinase 26 (Homo sapiens), Q9P289-1 M225E (Q9P289 whole entry M225E): as the sequence (Q9P289 whole entry W324E) above, with M225E, E324W counted along it
Sequence of Serine/threonine-protein kinase 26 (Homo sapiens), Q9P289-1 F229A (Q9P289 whole entry F229A): as the sequence (Q9P289 whole entry W324E) above, with F229A, E324W counted along it
Sequence of Serine/threonine-protein kinase 26 (Homo sapiens), Q9P289-1 E138A (Q9P289 whole entry E138A): as the sequence (Q9P289 whole entry W324E) above, with E138A, E324W counted along it

effect of a mutation on the interaction (cab39_human CAB39 [1]) | effect of a mutation on the interaction (cab39_human CAB39 [2]) | effect of a mutation on the interaction (cab39_human CAB39 [4]) | Substance | other results
decreasing interaction strength | disrupting interaction strength |  | Serine/threonine-protein kinase 26 (Homo sapiens), Q9P289-1 L90E;L95E | 
decreasing interaction strength | disrupting interaction strength |  | Serine/threonine-protein kinase 26 (Homo sapiens), Q9P289-1 W324E | 
 | decreasing interaction strength |  | Serine/threonine-protein kinase 26 (Homo sapiens), Q9P289-1 E138A | 
decreasing interaction strength | disrupting interaction strength |  | Serine/threonine-protein kinase 26 (Homo sapiens), Q9P289-1 Y134A | 
 |  |  | Serine/threonine-protein kinase 26 (Homo sapiens), Q9P289-1 D162A | effect of a mutation on the interaction (cab39_human CAB39 [3]): decreasing interaction strength
decreasing interaction strength | disrupting interaction strength |  | Serine/threonine-protein kinase 26 (Homo sapiens), Q9P289-1 L95E | 
 |  | decreasing interaction strength | Serine/threonine-protein kinase 26 (Homo sapiens), Q9P289-1 L228E | 
 |  | decreasing interaction strength | Serine/threonine-protein kinase 26 (Homo sapiens), Q9P289-1 D242A;K276A | 
decreasing interaction strength |  |  | Serine/threonine-protein kinase 26 (Homo sapiens), Q9P289-1 E58A | 
 |  | decreasing interaction strength | Serine/threonine-protein kinase 26 (Homo sapiens), Q9P289-1 M225E | 
 |  | decreasing interaction strength | Serine/threonine-protein kinase 26 (Homo sapiens), Q9P289-1 F229A | 
